Laboratory results taken from the supplement of paper PMC9170038.

Key:
MS2 coat protein [1] = assay: apparent KD of MS2 coat protein, switch OFF state (with FMN for OFF switches, without FMN for ON switches); designed switch direction (-1 OFF switch, 1 ON switch): -1; higher = weaker reporter binding; settings: FMN input: 0 or 200 uM; Eterna round: R93 (includes R88 designs)
In short: (§1)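 In 100 mM Tris-HCl pH 7.5 with 80 mM KCl and 4 mM MgCl2, and without or with constant ligand, SNAP-549-labelled MS2 coat protein was titrated in twofold steps from 0.7 or 1.5 nM to 3 µM. Per-step times went from 0.8–1.5 h down to 10–20 min. The RNA switches were transcribed on-chip from Illumina sequencing clusters, and apparent KD is the per-design median of normalised cluster binding-curve fits.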

MS2 coat protein [2] = assay: apparent KD of MS2 coat protein, switch ON state; designed switch direction (-1 OFF switch, 1 ON switch): -1; higher = weaker reporter binding; settings: FMN input: 0 or 200 uM; Eterna round: R93 (includes R88 designs)
In short: as §1

| Sequence | apparent KD of MS2 coat protein (MS2 coat protein [1]) [nM] | apparent KD of MS2 coat protein (MS2 coat protein [2]) [nM] |
| --- | --- | --- |
| GUAAACCUAGGAUAUACAUGAGGAUCACCCAUGUAAAGUUUCGUAAAAAGAAAAUCGAGUAGAAGGAGGUAGAU [JR_Exc003_Sub1222] | 26.6 | 22.5 |
| AAAAACUGAGGAUAUACAUGAGGAUCACCCAUGUGAAAGAACGAAAAACGAAAAGCAAGUAGAAGGCAGAAAAA [Ruby 77] | 26.1 | 20.9 |
| AAGUUAUUAGGAUAUACUAGUGCAAUUAAUACGCUGAUAGUACAUGAGGAUCACCCAUGUAGAAGGAAUAAAAA [Mat - Exclusion 2 - JL mod - D66] | 20.6 | 30.5 |
| UCCUGACAUGAGGAUCACCCAUGUCAGGAUAUAGUAUGAAAAAAAAAAAAAAAAAAUACUAGAAGGGACAAGGG [Design 13: Super Stable Short Helix 4] | 26.8 | 18.5 |
| AAAAACCUAGGAUAUACAUGAGGAUCACCCAUGUAAAGAAACAAAAAGGGAAACACAAGUAGAAGGAGGAAGAA [JR_Exc003_Sub1203] | 27.4 | 22.6 |
| AAAAAACAUGAGGAUCACCCAUGUAAGGAUAUGCUCGUGCGAAAAAGCACAAAAAAGAGCAGAAGGUACAAAAA [66%, Wbt, 40] | 34.4 | 18.8 |
| AACUGACAUGAGGAUCACCCAUGUCAGGAUAUGAUUUGACGAAAAAAAAUAAGUCAUAUCAGAAGGGACAUGGA [Design 84: Sub-opt WB] | 45 | 26 |
| AAUAAGUGAGGAUAUGUAAAUAGUAGAUAAGAUUCCCUAAAACAGAAGGCACAUGAGGAUCACCCAUGUAAAUA [JR_Exc004_Sub007] | 19.7 | 25.9 |
| ACCAGACAUGAGGAUCACCCAUGUCAGGAUAUAGUAUGAAAAAAAAAAAAAAAAAAUACUAGAAGGGACAAGGG [Design 14: Super Stable Short Helix 5] | 63.8 | 29.7 |
| GUGGAACAUGAGGAUCACCCAUGUGAGGAUAUAGGUUUUUGGGAAAAACUAGGAGAAACUAGAAGGCGCAAGAA [Exclusion 1.1] | 22 | 26.2 |
| AUAAUGUCAGGAUAUCAGUAGUAAAAAAAAAAAAUUACUACUGAGAAGGGACAUGAGGAUCACCCAUGUCAAAA [EX4 307: Super Stable 7] | 24.9 | 27.6 |
| AAAAAACAUGAGGAUCACCCAUGUGAGGAUAUCGUGCAGAAAAAAAAAAAAAACUGCACGAGAAGGCACAUGAA | 105 | 38.9 |
| AACAGUACAGGAUAUACAUGAGGAUCACCCAUGUAAAGGGAAUAAAACAAAAAUAAAUGUAGAAGGGUACUGGA [Moding Maslow revisited (73) 21] | 129 | 69.3 |
| CCUAUGUCAGGAUAUCAGUAGUAAAAAAAAAAAAUUACUACUGAGAAGGGACAUGAGGAUCACCCAUGUCCAAA [EX4 312: Super Stable 12] | 18.4 | 25.6 |
| AACAUGUCAGGAUAUGUAGCAAAAAGUGAUCCAAAAAAGCUACAGAAGGGACAUGAGGAUCACCCAUGUAAAAA [Ex4: 933] | 44.5 | 124 |
| GCUGUCCAAGGAUAUACAUGAGGAUCACCCAUGUGAGAGAAAAAAGUGAGAAAGAAAAGUAGAAGGUGGGUAGG [salish99-ex3-103] | 56.6 | 31.6 |
| AAAAAGGUAGGAUAUACAUGAGGAUCACCCAUGUCGCGGCGCGCGGACAGCCCGCCCUGUAGAAGGACCAAAAA [Default title] | 28.6 | 35 |
| AAGAACAGAGGAUAUACUAAAGAAAUGAAAAGAAAGAAAGAACAUGAGGAUCACCCAUGUAGAAGGCUGAAGAA [Yakbim Sekhaenre] | 13.5 | 25.9 |
